The record followed here is patent US20260070987A1.

Where a chain is given by its changes, count along the chain named. In names and notes the source's numbering stands.

To fix the notation:
B1: equine IgG4 A426M (antibody, part only; not given: Variable domains, not shown: another chain or arm of the molecule)
constant: ASTTAPKVFPLASHSAATSGSTVALGCLVSSYFPEPVTVSWNSGALTSGVHTFPSVLQSSGLYSLSSMVTVPASSLKSQTYICNVAHPASSTKVDKKIVIKECNGGCPAECLQVGPSVFIFPPKPKDVLMISRTPTVTCVVVDVGHDFPDVQFNWYVDGVETHTATTEPKQEQFNSTYRVVSVLPIQHKDWLSGKEFKCKVNNKALPAPVERTISKPTGQPREPQVYVLAPHRDELSKNKVSVTCLVKDFYPTDIDIEWKSNGQPEPETKYSTTPAQLDSDGSYFLYSKLTVETNRWQQGTTFTCMVMHEALHNHYTEKSVSKSPGK
B2: equine IgG4 M428F (antibody, part only; not given: variable domains, not shown: another chain or arm of the molecule)
constant: B1 constant with M306A, M308F
B3: equine IgG4 M428E (antibody, part only; not given: variable domains, not shown: another chain or arm of the molecule)
constant: B1 constant with M306A, M308E
B4: equine IgG4 M428S (antibody, part only; not given: variable domains, not shown: another chain or arm of the molecule)
constant: B1 constant with M306A, M308S
B5: equine IgG4 M428N (antibody, part only; not given: variable domains, not shown: another chain or arm of the molecule)
constant: B1 constant with M306A, M308N
B6: equine IgG4 M428R (antibody, part only; not given: variable domains, not shown: another chain or arm of the molecule)
constant: B1 constant with M306A, M308R
B7: equine IgG4 M428G (antibody, part only; not given: variable domains, not shown: another chain or arm of the molecule)
constant: B1 constant with M306A, M308G
B8: equine IgG4 A426W (antibody, part only; not given: variable domains, not shown: another chain or arm of the molecule)
constant: B1 constant with M306W
B9: equine IgG4 M428W (antibody, part only; not given: variable domains, not shown: another chain or arm of the molecule)
constant: B1 constant with M306A, M308W
B10: equine IgG4 M428I (antibody, part only; not given: variable domains, not shown: another chain or arm of the molecule)
constant: B1 constant with M306A, M308I
B11: equine IgG4 A426P (antibody, part only; not given: Variable domains, not shown: another chain or arm of the molecule)
constant: B1 constant with M306P
B12: equine IgG4 A426T (antibody, part only; not given: Variable domains, not shown: another chain or arm of the molecule)
constant: B1 constant with M306T
B13: equine IgG4 M428Q (antibody, part only; not given: variable domains, not shown: another chain or arm of the molecule)
constant: B1 constant with M306A, M308Q
B14: equine IgG4 M428H (antibody, part only; not given: variable domains, not shown: another chain or arm of the molecule)
constant: B1 constant with M306A, M308H
B15: equine IgG4 A426Y (antibody, part only; not given: variable domains, not shown: another chain or arm of the molecule)
constant: B1 constant with M306Y
B16: equine IgG4 M428P (antibody, part only; not given: variable domains, not shown: another chain or arm of the molecule)
constant: B1 constant with M306A, M308P
B17: equine IgG4 A426V (antibody, part only; not given: Variable domains, not shown: another chain or arm of the molecule)
constant: B1 constant with M306V
B18: equine IgG4 M428V (antibody, part only; not given: Variable domains, not shown: another chain or arm of the molecule)
constant: B1 constant with M306A, M308V
B19: equine IgG4 M428A (antibody, part only; not given: variable domains, not shown: another chain or arm of the molecule)
constant: B1 constant with M306A, M308A
B20: equine IgG4 A426N (antibody, part only; not given: variable domains, not shown: another chain or arm of the molecule)
constant: B1 constant with M306N
B21: equine IgG4 M428T (antibody, part only; not given: variable domains, not shown: another chain or arm of the molecule)
constant: B1 constant with M306A, M308T
B22: equine IgG4 M428L (antibody, part only; not given: Variable domains, not shown: another chain or arm of the molecule)
constant: B1 constant with M306A, M308L
B23: equine IgG4 M428D (antibody, part only; not given: Variable domains, not shown: another chain or arm of the molecule)
constant: B1 constant with M306A, M308D
B24: equine IgG4 A426S (antibody, part only; not given: variable domains, not shown: another chain or arm of the molecule)
constant: B1 constant with M306S
B25: equine IgG4 A426R (antibody, part only; not given: variable domains, not shown: another chain or arm of the molecule)
constant: B1 constant with M306R
B26: equine IgG4 A426Q (antibody, part only; not given: variable domains, not shown: another chain or arm of the molecule)
constant: B1 constant with M306Q
B27: equine IgG4 M428C (antibody, part only; not given: variable domains, not shown: another chain or arm of the molecule)
constant: B1 constant with M306A, M308C
B28: equine IgG4 M428K (antibody, part only; not given: variable domains, not shown: another chain or arm of the molecule)
constant: B1 constant with M306A, M308K
B29: equine IgG1 T286L (antibody, part only; not given: variable domains, not shown: another chain or arm of the molecule)
constant: ASTTAPKVFALAPGCGTTSDSTVALGCLVSGYFPEPVKVSWNSGSLTSGVHTFPSVLQSSGFYSLSSMVTVPASTWTSETYICNVVHAASNFKVDKRIEPIPDNHQKVCDMSKCPKCPAPELLGGPSVFIFPPNPKDTLMITRTPEVTCVVVDVSQENPDVKFNWYMDGVEVRLATTRPKEEQFNSTYRVVSVLRIQHQDWLSGKEFKCKVNNQALPQPIERTITKTKGRSQEPQVYVLAPHPDELSKSKVSVTCLVKDFYPPEINIEWQSNGQPELETKYSTTQAQQDSDGSYFLYSKLSVDRNRWQQGTTFTCGVMHEALHNHYTQKNVSKNPGK
B30: equine IgG1 T286M (antibody, part only; not given: variable domains, not shown: another chain or arm of the molecule)
constant: B29 constant with L174M

This assay addresses equine FcRn (large alpha subunit p51) / equine beta-2-microglobulin complex, biotinylated (equine) (UniProt P30441). Kind of assay: SPR (Biacore), pH 6. In general terms: SPR reads the build-up and loss of mass on a sensor chip optically.
Sequence of UniProt P30441 (P30441 21-118, one chain of several): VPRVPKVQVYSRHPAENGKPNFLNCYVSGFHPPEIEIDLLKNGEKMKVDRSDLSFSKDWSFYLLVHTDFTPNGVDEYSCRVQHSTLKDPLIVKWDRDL
Broadly, the Kd is the constant that tells how readily two partners part at equilibrium. The low end stands for a tighter complex, the high end for a looser complex. Take B1: the Kd worked out at 0.0185 µM.

In turn, B2 had a Kd of 0.0254 µM.

For the molecule B3, the dissociation constant (Kd) was found to be 0.0408 µM.

In the case of B4, the Kd worked out at 0.0406 µM.

Take B5: the Kd is 0.0443 µM.

B6: the Kd was 0.0931 µM.

As to B7, the Kd was 0.0315 µM.

With B8, the Kd came to 0.0144 µM.

Take B9: the equilibrium dissociation constant (Kd) came out at 0.031 µM.

In turn, B10 returned a Kd of 0.0495 µM.

The molecule B11 gave a Kd of 0.0098 µM.

B12 displayed a Kd of 0.0158 µM.

For the molecule B13, the Kd was 0.03 µM.

Consider B14, for which the Kd is 0.0294 µM.

The molecule B15 displayed a Kd of 0.0123 µM.

B16 registered a dissociation constant (Kd) of 13 µM.

Regarding B17, the Kd was 0.0188 µM.

As to B18, the Kd turned out to be 0.0752 µM.

With B19, the Kd came out at 23 µM.

Take B20: the Kd is 0.0187 µM.

Molecule B21 returned a Kd of 0.0718 µM.

B22 yielded a Kd of 0.0174 µM.

On to B23, for which the Kd was 0.0407 µM.

The molecule B24 yielded a Kd of 0.0211 µM.

For the molecule B25, the Kd was determined as 0.022 µM.

For the molecule B26, the Kd is 0.0212 µM.

Turning to B27, the dissociation constant (Kd) was found to be 0.0532 µM.

B28 had a Kd of 0.0462 µM.

As to B29, the Kd amounted to 0.0123 µM.

Molecule B30 came in with an equilibrium dissociation constant (Kd) of 0.0156 µM.
